We go through three molecules from US20140079711A1 (Janssen / Centocor, published 2014).

In assay [1] the target is T1, CD147-FL-ECD (Asp19-192 of SEQ ID NO: 1) (human, UniProt Q865R3 19-192 (bovine entry)).
T1 construct: The Asp19 N-terminus is stated for the hexa-His ECD-FL; also called ECD-FL; CD147 ECD
T1 sequence: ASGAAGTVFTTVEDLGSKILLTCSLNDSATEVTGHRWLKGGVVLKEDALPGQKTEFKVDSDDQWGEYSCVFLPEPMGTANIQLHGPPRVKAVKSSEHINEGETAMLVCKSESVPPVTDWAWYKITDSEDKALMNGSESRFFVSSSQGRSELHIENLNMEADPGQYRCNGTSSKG
Put plainly: SPR (Biacore 3000), mAb captured by anti-mouse Fc, CD147-FL-ECD injected. The protocol: Affinity for the CD147 ECD was also measured by surface plasmon resonance (Biacore). Kinetic studies were performed at 25° C. using a BIACORE 3000 (BIAcore, Inc.) surface plasmon resonance (SPR) instrument. Goat anti-mouse Fcy specific antibody (Jackson Immunoresearch laboratories Prod #115-005-071) was covalently attached to carboxymethyl dextran coated gold surfaces (CM-5 Chip, Biacore). The carboxymethyl groups of dextran were activated with N-Ethyl-N′-(3-Dimethylaminopropyl)carbodiimide (EDC) and N-hydroxysuccinimide (NHS). The Ab was attached at pH 4.5 in 10 mM sodium acetate. Any remaining reactive sites on the surface were blocked by reaction with ethanolamine.
For kinetic binding measurements, anti-CD147 mAbs were captured using an anti-mouse Fcy specific antibody at a flow rate of 30 μL/min. Ab capture was followed by injection of CD147-FL-ECD or the N- or C-domain fragments (as described in Example 1) at concentrations between 75 and 300 nM at 60 μL/min. Association data was collected for 2 min followed by 10 min of dissociation. The surface was regenerated with 15 μL of 100 mM H3PO4, followed by 15 μL of 50 mM NaOH at 30 μL/min. All samples were prepared in D-PBS containing 3 mM EDTA and 0.005% surfactant P20. Data reported is the difference in SPR signal between the flow cell containing the captured antibody and a reference cell without captured antibody. Additional instrumental contributions to the signal were removed by subtraction of the data from the blank injection from the reference-subtracted signal. Data were analyzed by fitting association and dissociation phases at all concentrations using the BIAevaluation software (BIAcore, Inc.).

Assay [2] addresses T2, native human CD147 on MDA-MB-231 breast carcinoma cells (human, UniProt P35613 140-385).
T2 construct: also called EMMPRIN; MDA-MB-231 cells
T2 sequence: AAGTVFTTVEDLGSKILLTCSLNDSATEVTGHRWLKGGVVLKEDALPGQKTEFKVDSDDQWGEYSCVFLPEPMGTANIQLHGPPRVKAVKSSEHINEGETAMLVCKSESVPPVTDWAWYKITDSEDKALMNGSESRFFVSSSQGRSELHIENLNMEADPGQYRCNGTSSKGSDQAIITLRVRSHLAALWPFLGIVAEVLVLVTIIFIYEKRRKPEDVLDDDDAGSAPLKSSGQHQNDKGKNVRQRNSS
Briefly: live cell binding assay on MDA-MB-231 cells, HRP-conjugated secondary antibody, OD 490, antibody at 10 ug/ml.

In assay [3] the target is T3, recombinant CD147 ECD-Flag construct (construct #3364, human CD147 ECD1-192) (human, UniProt Q865R3 22-192 (bovine entry)).
T3 sequence: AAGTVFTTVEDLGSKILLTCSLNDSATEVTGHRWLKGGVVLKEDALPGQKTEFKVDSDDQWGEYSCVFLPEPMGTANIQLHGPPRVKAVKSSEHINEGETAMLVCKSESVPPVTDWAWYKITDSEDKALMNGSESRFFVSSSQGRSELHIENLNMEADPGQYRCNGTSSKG
Put plainly: cell-based or functional assay.

B1: 4A5(mIgG1) (antibody, V domains shown)
VH: EVQLQQSGPELVKPGASVKISCKASGYTFTDYYMNWVKQSHGKSLEWIGGINPNNGGTSYNQKFKGKATLTVDKSSSTAYMELRSLTSEDSAVYYCARNDGYRGYAMDYWGQGTSVTVSS
VL: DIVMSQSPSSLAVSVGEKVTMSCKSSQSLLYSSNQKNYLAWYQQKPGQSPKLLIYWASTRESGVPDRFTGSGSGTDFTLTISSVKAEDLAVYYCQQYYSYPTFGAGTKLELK
notes: Murine IgG1 from hybridoma; also called C1177A; 4A5 mAb
For the molecule B1, the dissociation constant (Kd) in assay [1] was 100 nM. Besides, in assay [2], the binding result is “binds”.

B2: 2C8(mIgG1) (antibody, V domains shown)
VH: EMKLEESGGGLVQPGGSMKLSCVASGFTFSNYRMNWVRQSPEKGLEWVAQIRLKSYNYATHYAESVKGRFTISRDDSKSSVYLQMNNLRAEDTGIYYCTPDGSDYWGQGTTLTVSS
VL: DILMTQSPSSMSVSLGDTVSITCHASQGISSSIGWLQQKPGKSFKGLIYHGTNLEDGVPSRFTGSGSGADYSLTISSLESEDFADYYCVQYAQFPYTFGGGTKLEIK
notes: Murine IgG1 from hybridoma; also called C1170A; C1170
B2: the “MMP-1 IC50” value in assay [3] was 20 µg/mL. The same molecule yielded a Kd in assay [1] of 5 nM.

B3: 5F6(mIgG1) (antibody, V domains shown)
VH: EMKLEESGGGLVQPGGSMKLSCVASGFTFSNYWMNWVRQSPEKGLEWVAQIRLKSYNYATHYAESVKGRFTISRDDSKSSVYLQMNNLRAEDTGIYYCTPDGSDYWGQGTTLTVSS
VL: SIVMTQTPKFLLVSAGDRVTITCKASQSVSNDVAWYQQKPGQSPKLLIYYASNRYTGVPDRFTGSGYGTDFTFTISTVQAEDLAVYFCQQDYSSPYTFGGGTKLEIK
notes: Murine IgG1 from hybridoma; Two light chain V-regions were found for 5F6; also called C1171A; 5F6 mAb
B3 displayed a Kd in assay [1] of 4 nM.
